Assay results from PMC548358.

T1: Trx-mMUTYH wild type (Mus musculus, UniProt Q99P21 1-515)
T1 sequence: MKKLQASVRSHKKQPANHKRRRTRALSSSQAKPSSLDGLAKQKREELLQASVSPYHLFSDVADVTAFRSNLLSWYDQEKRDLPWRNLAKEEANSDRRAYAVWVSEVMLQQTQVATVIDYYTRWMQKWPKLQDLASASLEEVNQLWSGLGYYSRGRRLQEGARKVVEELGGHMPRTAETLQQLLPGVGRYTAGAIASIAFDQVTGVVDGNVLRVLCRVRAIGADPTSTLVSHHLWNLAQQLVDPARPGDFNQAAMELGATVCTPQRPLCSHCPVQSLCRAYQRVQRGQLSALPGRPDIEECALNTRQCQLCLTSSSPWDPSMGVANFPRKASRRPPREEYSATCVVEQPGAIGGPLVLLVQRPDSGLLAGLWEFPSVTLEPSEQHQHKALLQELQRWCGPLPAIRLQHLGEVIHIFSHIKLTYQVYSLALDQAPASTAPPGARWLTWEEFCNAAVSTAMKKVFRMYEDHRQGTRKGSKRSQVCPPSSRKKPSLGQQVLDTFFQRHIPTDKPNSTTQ

T2: Trx-mMUTYH(D207N) (Mus musculus, UniProt Q99P21 1-515, D207N)
T2 sequence: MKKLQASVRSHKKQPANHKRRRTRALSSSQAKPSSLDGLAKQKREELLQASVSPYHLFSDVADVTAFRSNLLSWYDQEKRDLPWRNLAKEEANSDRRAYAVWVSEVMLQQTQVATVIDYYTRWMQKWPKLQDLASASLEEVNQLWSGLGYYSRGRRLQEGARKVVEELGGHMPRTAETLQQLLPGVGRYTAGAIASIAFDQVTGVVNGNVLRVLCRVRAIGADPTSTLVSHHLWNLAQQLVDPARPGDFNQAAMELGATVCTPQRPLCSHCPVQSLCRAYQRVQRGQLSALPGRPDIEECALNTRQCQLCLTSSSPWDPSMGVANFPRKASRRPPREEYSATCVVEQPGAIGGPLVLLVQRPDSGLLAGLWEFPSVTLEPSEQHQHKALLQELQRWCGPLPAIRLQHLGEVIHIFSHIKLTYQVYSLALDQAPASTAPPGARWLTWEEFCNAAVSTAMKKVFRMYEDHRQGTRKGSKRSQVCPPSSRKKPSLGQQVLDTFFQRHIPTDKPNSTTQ


Tests used:
[1] = molecular target: T1, Trx-mMUTYH wild type; assay: EMSA
[2] = molecular target: T2, Trx-mMUTYH(D207N); assay: EMSA

Binder | binding result [1] | binding result [2]
*A:GO (dsDNA, 8-oxoguanine at strand 2 position 16, opposite A20 of strand 1) DNA 1: AGCGGCCATCGATACCGTCAACCTCGAGGAATTCC DNA 2: GGAATTCCTCGAGGTGGACGGTATCGATGGCCGCT | binds | binds
*AO:GO (dsDNA, 2-hydroxyadenine at strand 1 position 20; 8-oxoguanine at strand 2 position 16) DNA 1: AGCGGCCATCGATACCGTCAACCTCGAGGAATTCC DNA 2: GGAATTCCTCGAGGTGGACGGTATCGATGGCCGCT | binds | –
*AO:G (dsDNA, 2-hydroxyadenine at strand 1 position 20, opposite G16 of strand 2) DNA 1: AGCGGCCATCGATACCGTCAACCTCGAGGAATTCC DNA 2: GGAATTCCTCGAGGTGGACGGTATCGATGGCCGCT | no binding | no binding
*AO:T (dsDNA, 2-hydroxyadenine at strand 1 position 20, opposite T16 of strand 2) DNA 1: AGCGGCCATCGATACCGTCAACCTCGAGGAATTCC DNA 2: GGAATTCCTCGAGGTTGACGGTATCGATGGCCGCT | no binding | no binding
*A:G (dsDNA) DNA 1: AGCGGCCATCGATACCGTCAACCTCGAGGAATTCC DNA 2: GGAATTCCTCGAGGTGGACGGTATCGATGGCCGCT | no binding | no binding
